“And” between values parts separate entries of the source, which are not always exact repeats. Equal values may be shown once. “Also recorded” adds a separate entry of the source. Read-outs that look alike come from different tables or passages of the source. Ends that are not written are not given here. * marks the point of attachment. NHNH2 = NN*
Assays:
collagen = experiment: Collagen-binding plate assay; details: for collagen binding EC50: compared to the EC50 for Compound 4
Procedure: The following method is used to assess the binding affinity of bioconjugates disclosed herein for collagen.
Collagen-binding of bioconjugate variants is compared by a plate-assay, in which collagen is coated on 96-well plates. Collagen is coated on high-bind plates at 50 μg/mL in 0.02 N acetic acid for 1 hour at room temperature. Unbound collagen is rinsed with 1×PBS pH 7.4. Plates are then blocked in 1% milk in 1×PBS solution for 1 hour at room temperature.
Bioconjugate variants containing biotinlyated peptides are dissolved to a final concentration of 1 mg/mL in 1% milk in 1×PBS pH 7.4. From this solution, a 10× serial dilution is performed. Molecules are then incubated on the blocked collagen-coated plates and incubated for 15 minutes at room temperature. Plates are then rinsed 3 times with 1×PBS in 1% BSA and 0.2% Tween20.
Bound molecules are detected by streptavidin-HRP, which was diluted 1:500 in 1× PBS with 1% BSA and 0.2% Tween20 and incubated 200 μL/well for 20 minutes at room temperature. Streptavidin solution is rinsed from the plates 3 times with 1×PBS with 0.2% Tween20. TMB Substrate solution is then added to each well 100 μL/well for 15 minutes at room temperature, and the color evolution was stopped with 100 μL sulfuric acid solution (0.16 M). Absorbance in the well is then measured at 450 nm and binding affinity plotted in a dose-response by absorbance vs. concentration.
This method was used to compare collagen binding affinity of various collagen-binding bioconjugates by comparing EC50 values. More specifically, the EC50 values for each bioconjugate was compared to the EC50 for Compound 4.

[1] = tested on: mouse model of Non-Alcoholic Steatohepatitis (NASH); experiment: Non-Alcoholic Steatohepatitis (NASH) mouse model, liver collagen by Sirius Red; assay type: in vivo, C57BL/6 mice; details: week 5 to week 9; Compound 10 3×/week intravenous, Telmisartan daily oral; compared to the vehicle treated group
Procedure: The ability of the compounds to affect liver fibrosis was tested in a mouse model of Non-Alcoholic Steatohepatitis (NASH). C57BL/6 mice received a single subcutaneous injection of 200 μg streptozotocin after birth. Beginning at 4 weeks of age, animals were fed a high fat diet. […] A separate group of animals received daily oral administration of Telmisartan during the same period Animals were sacrificed at 9 weeks of age and the livers were collected for histological and biochemical analysis. Histological analysis of the livers for collagen content was performed using Sirius Red staining.

[2] = tested on: platelet binding to Type I fibrillar collagen; experiment: Platelet aggregation: platelet binding to collagen under flow; assay type: cell-based; details: 2 mg/mL on collagen-coated slides, human whole blood, sheer rate 1000 s−1, 10 minutes; compared to Compound 1
Procedure: Type I fibrillar collagen was adsorbed to Ibidi μ-slides by overnight incubation at 2-8° C. The Ibidi μ-slides were rinsed with Phosphate Buffer Saline (PBS), and then blocked with 1% BSA in 1×PBS. Compound 10 (shown in FIG. 12B) and Compound 1 at 2 mg/mL (shown in 12A) were applied to Ibidi μ-slides and left to incubate. After 1 hour excess conjugates were rinsed away with 1×PBS. Freshly drawn human whole blood was prestained with Calcein AM (Live Fluorescent cell marker). Blood was pumped across the channels at a sheer rate of 1000 s−1 using a syringe pump for 10 minutes. As blood flows across the Ibidi μ-Slides, Fluorescent microscope was used to take images of aggregated fluorescently labeled platelets.

Collagen Type I = Collagen Type I (Homo sapiens, UniProt P02452+P08123); experiment: Collagen Binding Assay 2; details: with GSGSGSRR spacer versus binding domain without spacer and spacer alone, FIG. 18 and 19
Sequence of Collagen Type I (P02452 162-1218 limits assumed): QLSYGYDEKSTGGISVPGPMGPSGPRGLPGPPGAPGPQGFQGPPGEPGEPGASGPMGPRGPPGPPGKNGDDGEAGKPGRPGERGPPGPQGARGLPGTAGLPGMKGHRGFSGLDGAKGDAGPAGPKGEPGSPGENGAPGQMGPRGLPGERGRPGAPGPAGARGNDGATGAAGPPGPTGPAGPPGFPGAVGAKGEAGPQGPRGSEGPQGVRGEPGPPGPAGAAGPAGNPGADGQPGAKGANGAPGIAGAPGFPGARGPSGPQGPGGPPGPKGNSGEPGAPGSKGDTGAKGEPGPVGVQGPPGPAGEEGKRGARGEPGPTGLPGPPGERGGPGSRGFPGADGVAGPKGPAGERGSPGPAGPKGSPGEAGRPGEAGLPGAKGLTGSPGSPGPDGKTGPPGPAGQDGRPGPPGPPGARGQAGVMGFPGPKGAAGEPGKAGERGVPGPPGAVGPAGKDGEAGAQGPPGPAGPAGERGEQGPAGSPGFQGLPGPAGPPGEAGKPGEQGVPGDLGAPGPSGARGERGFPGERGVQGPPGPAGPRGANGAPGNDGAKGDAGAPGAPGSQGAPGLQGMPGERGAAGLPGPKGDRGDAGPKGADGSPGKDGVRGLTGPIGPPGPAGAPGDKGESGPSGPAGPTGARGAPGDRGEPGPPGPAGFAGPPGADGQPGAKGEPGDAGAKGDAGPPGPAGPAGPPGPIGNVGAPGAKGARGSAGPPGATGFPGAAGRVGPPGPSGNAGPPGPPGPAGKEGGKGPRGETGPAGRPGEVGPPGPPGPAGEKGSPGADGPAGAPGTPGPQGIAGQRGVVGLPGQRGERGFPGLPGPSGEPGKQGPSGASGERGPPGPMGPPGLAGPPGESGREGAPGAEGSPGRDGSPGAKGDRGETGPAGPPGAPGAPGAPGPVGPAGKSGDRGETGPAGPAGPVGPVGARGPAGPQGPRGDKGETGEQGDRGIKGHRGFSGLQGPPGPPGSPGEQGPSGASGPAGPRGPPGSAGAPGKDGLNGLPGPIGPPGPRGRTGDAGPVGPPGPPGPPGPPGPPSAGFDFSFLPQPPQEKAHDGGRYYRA
Sequence of Collagen Type I (P08123 80-1119 limits assumed): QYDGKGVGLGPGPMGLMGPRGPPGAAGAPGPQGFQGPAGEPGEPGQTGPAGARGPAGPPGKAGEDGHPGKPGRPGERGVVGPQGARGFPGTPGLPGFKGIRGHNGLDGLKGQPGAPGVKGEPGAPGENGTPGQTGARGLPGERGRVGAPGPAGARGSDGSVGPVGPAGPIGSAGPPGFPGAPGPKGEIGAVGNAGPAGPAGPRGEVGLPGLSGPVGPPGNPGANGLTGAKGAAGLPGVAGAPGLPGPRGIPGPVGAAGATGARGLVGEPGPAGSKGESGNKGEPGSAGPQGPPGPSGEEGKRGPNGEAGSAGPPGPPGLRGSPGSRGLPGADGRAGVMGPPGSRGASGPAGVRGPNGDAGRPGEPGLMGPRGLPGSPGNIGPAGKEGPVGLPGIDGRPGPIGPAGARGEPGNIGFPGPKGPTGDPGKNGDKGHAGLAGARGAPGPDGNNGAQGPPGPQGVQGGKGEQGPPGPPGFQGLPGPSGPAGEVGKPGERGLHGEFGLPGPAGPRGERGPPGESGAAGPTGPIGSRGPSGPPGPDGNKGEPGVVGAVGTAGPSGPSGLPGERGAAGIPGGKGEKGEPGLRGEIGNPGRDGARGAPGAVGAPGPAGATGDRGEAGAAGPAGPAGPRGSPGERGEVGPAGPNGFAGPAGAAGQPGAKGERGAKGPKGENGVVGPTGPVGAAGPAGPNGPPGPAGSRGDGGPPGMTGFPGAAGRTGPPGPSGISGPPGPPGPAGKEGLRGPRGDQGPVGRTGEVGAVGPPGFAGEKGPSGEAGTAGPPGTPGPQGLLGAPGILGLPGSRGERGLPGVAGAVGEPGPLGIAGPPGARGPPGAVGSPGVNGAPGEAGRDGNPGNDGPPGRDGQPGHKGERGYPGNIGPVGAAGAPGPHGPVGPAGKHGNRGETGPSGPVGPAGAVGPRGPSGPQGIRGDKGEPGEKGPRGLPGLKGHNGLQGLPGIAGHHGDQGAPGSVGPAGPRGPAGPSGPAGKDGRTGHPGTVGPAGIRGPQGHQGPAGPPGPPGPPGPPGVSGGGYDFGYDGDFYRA
Procedure: GQLYKSILYGSGSGSRR (SEQ ID NO: 6) (Compound 10) was evaluated for binding affinity against the GQLYKSILYGSG (SEQ ID NO: 59) (Peptide X) binding domain without spacer and against the spacer sequence alone, GSGSGSRR (SEQ ID NO: 4) (Spacer A), results shown in FIG. 18. […] WREPSFSALS (SEQ ID NO: 8), also known as vWF-2× due to its binding to the von Willebran binding site on collagen, was evaluated for binding affinity with and without the GSGSGSRR (SEQ ID NO: 4) spacer.
50 μg/ml of Collagen Type I was adsorbed onto high bind plates by incubating overnight. Plates were then washed with PBS and blocked using 1% Non-fat milk in PBS for 1 hour. Molecule dilutions were prepared in 1% BSA in PBS and then incubated for 1 hour at 25° C. Plates were then washed with PBS containing 0.05% Tween 20. A 1:500 dilution of Streptavidin-HRP in 1% BSA PBS was prepared and added to the plates for 20 minutes. Plates were then washed with PBS and TMB solution was added for 10 minutes for color development. The color development was stopped using 0.16 M sulfuric acid and absorbance at […] was measured using a plate reader. Compound 10 was used as a reference standard for all EC50 results.

[3] = biological target: collagen (coated on 96-well plates, Example 2); experiment: collagen-coated 96-well plate, biotin-labelled bioconjugate, streptavidin-HRP/TMB, absorbance at 450 nm (Example 2)
[4] = biological target: collagen (coated on 96-well plates, Example 2); experiment: collagen-coated 96-well plate, biotin-labelled bioconjugate, streptavidin-HRP/TMB, absorbance at 450 nm (Example 2); Kd unit inferred, the concentration axis is in ug/ml
[5] = biological target: collagen (coated on 96-well plates, Example 2); experiment: collagen-coated 96-well plate, biotin-labelled bioconjugate, streptavidin-HRP/TMB, absorbance at 450 nm (Example 2), the concentration axis is in ug/ml
[6] = biological target: collagen (coated on 96-well plates, Example 2); experiment: collagen-coated 96-well plate, biotin-labelled bioconjugate, streptavidin-HRP/TMB, absorbance at 450 nm (Example 2); remark: listed apart in the source

Molecule: Compound 8: heparin bioconjugate with peptide GQLYKSILYGSRGSG-NHNH2 (Peptide 8), 1:8 glycan to peptide (also: heparin bioconjugate, 1:8 glycan to peptide, attachment site not given here)
- collagen binding EC50 (collagen): increases EC50; also recorded: slightly increases EC50

Molecule: Compound 10: heparin bioconjugate with peptide GQLYKSILYGSGSGSRR-NHNH2 (Peptide 10), 1:8 glycan to peptide (also: heparin bioconjugate, 1:8 glycan to peptide, attachment site not given here)
- collagen binding EC50 (collagen): decreases the EC50
- levels of collagen in the liver (Sirius Red staining) [1]: decreased levels of collagen in the liver
- platelet binding to Type I fibrillar collagen [2]: inhibits platelet binding to Type I fibrillar collagen
- collagen binding affinity (Collagen Type I): greater binding affinity than the binding domain or the spacer in isolation

Molecule: WREPSFSALSGSGSGSRR [WREPSFSALSGSGSGSRR (SEQ ID NO: 110)]
- collagen binding affinity (Collagen Type I): increase in binding affinity

Molecule: Compound 4: heparin bioconjugate with peptide GQLYKSILYGSGRRGSG-NHNH2 (Peptide 4), 1:8 glycan to peptide (also: heparin bioconjugate, 1:8 glycan to peptide, attachment site not given here)
- collagen binding affinity (Kd) (collagen; compared to Compound 5 and Compound 3, FIG. 11): significant increase in collagen binding affinity (lower Kd)

Molecule: CCCc1nc2c(C)cc(-c3nc4ccccc4n3C)cc2n1Cc1ccc(-c2ccccc2C(=O)O)cc1 [Telmisartan, reference compound]
- levels of collagen in the liver (Sirius Red staining) [1]: decreased levels of collagen in the liver

B1: Compound 12 (heparin bioconjugate of …-NHNH2) (peptide)
peptide: GQLYKSILYGSGRRRGSG
modifications: not fully specified; C-terminal hydrazide (-NHNH-) bonded to a carboxyl of heparin; part of the peptides biotin-labelled
- EC50 (read off the curve) [3]: 30 µg/mL

B2: Compound 4 (heparin bioconjugate of …-NHNH2) (peptide)
peptide: GQLYKSILYGSGRRGSG
modifications: not fully specified; C-terminal hydrazide (-NHNH-) bonded to a carboxyl of heparin; part of the peptides biotin-labelled
- Kd [4]: 42.5 µg/mL
- EC50 [5]: 40.4 µg/mL and 32.1 µg/mL
- EC50 (read off the curve) [6]: 40 µg/mL
- EC50 (read off the curve) [3]: 50 µg/mL

B3: Compound 14 (heparin bioconjugate of …) (peptide)
peptide: GQLYKSILYGSGKKGSG
modifications: also: conjugated to heparin
- EC50 (read off the curve) [3]: 60 µg/mL

B4: Compound 8 (heparin bioconjugate of …-NHNH2) (peptide)
peptide: GQLYKSILYGSRGSG
modifications: not fully specified; C-terminal hydrazide (-NHNH-) bonded to a carboxyl of heparin; part of the peptides biotin-labelled
- EC50 [5]: 47.1 µg/mL
- EC50 (read off the curve) [6]: 60 µg/mL

B5: Compound 11 (heparin bioconjugate of …-NHNH2) (peptide)
peptide: GQLYKSILYGSRRGS
modifications: not fully specified; C-terminal hydrazide (-NHNH-) bonded to a carboxyl of heparin; part of the peptides biotin-labelled
- EC50 (read off the curve) [6]: 50 µg/mL

B6: Compound 9 (heparin bioconjugate of …-NHNH2) (peptide)
peptide: GQLYKSILYRRGSGSGS
modifications: not fully specified; C-terminal hydrazide (-NHNH-) bonded to a carboxyl of heparin; part of the peptides biotin-labelled
- EC50 (read off the curve) [3]: 50 µg/mL

B7: Compound 10 (heparin bioconjugate of …-NHNH2) (peptide)
peptide: GQLYKSILYGSGSGSRR
modifications: not fully specified; C-terminal hydrazide (-NHNH-) bonded to a carboxyl of heparin; part of the peptides biotin-labelled
- EC50 [5]: 15 µg/mL
- EC50 (read off the curve) [3]: 20 µg/mL

B8: Compound 6 (peptide)
peptide conjugated to heparin: GQLYKSILYGSRGRGSG
modifications: not fully specified; C-terminal hydrazide (-NHNH2) coupled to heparin; part of the peptides biotin-labelled
- EC50 [5]: 63.3 µg/mL

B9: Compound 7 (peptide)
peptide conjugated to heparin: GQLYKSILYGRSGRGSG
modifications: not fully specified; C-terminal hydrazide (-NHNH2) coupled to heparin; part of the peptides biotin-labelled
- EC50 [5]: 44.2 µg/mL

B10: Compound 19 (heparin bioconjugate of (…)2-KRRGSG-NHNH2) (peptide)
peptide 1: RVMHGLHLGDDEGSG
peptide 2: KRRGSG
modifications: not fully specified (C-terminus); printed as (RVMHGLHLGDDEGSG)2-KRRGS; also: two copies of chain 1 bonded to the N-terminal branching lysine of chain 2, about 3 branched peptides per heparin (16 kDa)
- EC50 (read off the curve) [3]: 100 µg/mL

B11: Compound 3 (heparin bioconjugate of …-NHNH2) (peptide)
peptide: GQLYKSILYGSG
modifications: not fully specified; C-terminal hydrazide (-NHNH-) bonded to a carboxyl of heparin; part of the peptides biotin-labelled
- Kd [4]: 112 µg/mL

B12: Compound 5 (heparin bioconjugate of …-NHNH2) (peptide)
peptide: GQLYKSILYGSGSGSGS
modifications: not fully specified; C-terminal hydrazide (-NHNH-) bonded to a carboxyl of heparin; part of the peptides biotin-labelled
- Kd [4]: 103 µg/mL and 113 µg/mL

B13: Compound 20 (peptide)
peptide conjugated to heparin: GSGGQLYKSILY
modifications: not fully specified (N-terminus); also: part of the peptides biotin-labelled, heparin backbone average 16 kDa
- Kd [4]: 35.1 µg/mL

B14: Compound 13 (heparin bioconjugate of …-NHNH2) (peptide)
peptide: GQLYKSILYGSGRGSGSGSG
modifications: not fully specified (C-terminus); printed as GQLYKSILYGSGRGSGSGSG-; also: about 5 peptides per heparin (16 kDa), part of the peptides biotin-labelled
- EC50 (read off the curve) [3]: 60 µg/mL

From patent US11529424B2, “Synthetic bioconjugates” (Symic Holdings, Inc., priority 2017, dated 2022)
